Measured values published in PMC10516927, “DNA-bridging by an archaeal histone variant via a unique tetramerisation interface” (Communications Biology, 2023).
Residue numbers refer to the chain shown, from its start. Names and notes keep the numbering of the source.

Legend:
[1] = target: MJ1647ΔTM, deletion variant of MJ1647 lacking the C-terminal 27 amino acids (Methanocaldococcus jannaschii) (UniProt Q59041); experiment: SEC-MALS; 100 µl protein at 2.0 mg/ml on a Superose12 10/300 column in buffer N(250), 0.5 ml/min
[2] = target: MJ1647ΔTM, deletion variant of MJ1647 lacking the C-terminal 27 amino acids (Methanocaldococcus jannaschii) (UniProt Q59041); experiment: native MS; nano-electrospray, protein exchanged into 0.5 M ammonium acetate, Synapt mass spectrometer
MJ1647 [3] = target: T1, MJ1647 (Methanocaldococcus jannaschii, UniProt Q59041 1-96); experiment: DNA-bridging pull-down; conditions: EMSA: 50 nM DNA, 10 mM Tris/HCl pH 8.0, 222 mM NaCl, 0.4 mM TCEP, 0.1 mg/ml BSA, 5% glycerol, 37 C 15 min; agarose EMSA: same with 110 mM NaCl, no glycerol …
T1 sequence: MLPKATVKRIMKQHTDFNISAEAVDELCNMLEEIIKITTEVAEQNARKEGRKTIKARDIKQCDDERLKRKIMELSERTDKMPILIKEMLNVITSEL

MJ1647 [4] = target: T1, MJ1647; experiment: EMSA; single species; EMSA: 50 nM DNA, 10 mM Tris/HCl pH 8.0, 222 mM NaCl, 0.4 mM TCEP, 0.1 mg/ml BSA, 5% glycerol, 37 C 15 min; agarose EMSA: same with 110 mM NaCl, no glycerol; TPM and bridging buffers not in the material; conditions: protein: recombinant; tags: untagged; chain copies: 4; label: Cy3 (Methods); 5'-32P for K80E and E95K; blunt
MJ1647ΔTM = target: T2, MJ1647ΔTM (Methanocaldococcus jannaschii, UniProt Q59041 1-69, del70-96); experiment: EMSA; pattern identical to A3; EMSA: 50 nM DNA, 10 mM Tris/HCl pH 8.0, 222 mM NaCl, 0.4 mM TCEP, 0.1 mg/ml BSA, 5% glycerol, 37 C 15 min; agarose EMSA: same with 110 mM NaCl, no glycerol; TPM and bridging buffers not in the material; conditions: protein: recombinant, tags: untagged, chain copies: 2, label: Cy3 (Methods), blunt
T2 sequence: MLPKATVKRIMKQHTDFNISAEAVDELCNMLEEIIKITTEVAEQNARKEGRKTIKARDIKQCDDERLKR

A3 [5] = target: T3, A3 (Methanocaldococcus jannaschii, UniProt Q58655 1-67); experiment: EMSA; two species (one or two dimers); EMSA: 50 nM DNA, 10 mM Tris/HCl pH 8.0, 222 mM NaCl, 0.4 mM TCEP, 0.1 mg/ml BSA, 5% glycerol, 37 C 15 min; agarose EMSA: same with 110 mM NaCl, no glycerol; TPM and bridging buffers not in the material; conditions: protein: recombinant; tags: untagged; chain copies: 2; label: Cy3 (Methods); 5'-32P for K80E and E95K; blunt
T3 sequence: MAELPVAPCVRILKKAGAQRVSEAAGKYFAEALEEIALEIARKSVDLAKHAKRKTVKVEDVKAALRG

MJ1647 E95K = target: T4, MJ1647 E95K (Methanocaldococcus jannaschii, UniProt Q59041 1-96, E95K); experiment: EMSA; faster (dimer) complex at low, tetramer complex at higher protein; EMSA: 50 nM DNA, 10 mM Tris/HCl pH 8.0, 222 mM NaCl, 0.4 mM TCEP, 0.1 mg/ml BSA, 5% glycerol, 37 C 15 min; agarose EMSA: same with 110 mM NaCl, no glycerol; TPM and bridging buffers not in the material; conditions: protein: recombinant; tags: untagged; chain copies: 2; label: Cy3 (Methods); 5'-32P for K80E and E95K; blunt
T4 sequence: T1 sequence with E95K

MJ1647 K80E = target: T5, MJ1647 K80E (Methanocaldococcus jannaschii, UniProt Q59041 1-96, K80E); experiment: as above; conditions: protein: recombinant; tags: untagged; chain copies: 2; label: Cy3 (Methods); 5'-32P for K80E and E95K; blunt
T5 sequence: T1 sequence with K80E

[6] = target: the molecule itself; experiment: crystal structure; X-ray, 1.9 Å; crystals from 0.1 M NaOAc pH 4.6, 10% PEG3350, 5% tacsimate pH 4.6; four chains in the asymmetric unit as two dimers
[7] = target: the molecule itself; experiment: cross-linking; BS3 (5 mM), 20 µM monomers, modified N(200) buffer with 10 mM HEPES/NaOH pH 7.5, 25 °C 40 min, SDS-PAGE with SYPRO-Orange; A3 alone, MJ1647 alone and co-expressed A3 and MJ1647; no DNA
[8] = target: the molecule itself; experiment: SEC; elution profiles of purified wild-type MJ1647 and its charge-reversal and cysteine variants compared
A3 [9] = target: T3, A3; experiment: EMSA; single shifted species; EMSA: 50 nM DNA, 10 mM Tris/HCl pH 8.0, 222 mM NaCl, 0.4 mM TCEP, 0.1 mg/ml BSA, 5% glycerol, 37 C 15 min; agarose EMSA: same with 110 mM NaCl, no glycerol; TPM and bridging buffers not in the material; conditions: protein: recombinant; tags: untagged; chain copies: 2; label: Cy3 (Methods); blunt
[10] = target: T6, histone variant MJ1647 from Methanocaldococcus jannaschii (Methanocaldococcus jannaschii (strain …, UniProt Q59041)); experiment: co-expression with SEC and BS3 cross-linking/SDS-PAGE
T6 chain: T1 sequence

[11] = target: the molecule itself; experiment: SEC-MALS; 100 µl protein at 2.0 mg/ml on a Superose12 10/300 column in buffer N(250), 0.5 ml/min

In the case of “MJ1647ΔTM, deletion variant of MJ1647 lacking the C-terminal 27 amino acids (from UniProt Q59041 1-96) (domain or fragment)”, the stoichiometry N [1] is reported as 2 and the stoichiometry N [2] is reported as 2.

685 bp TPM/bridging substrate showed a K half (MJ1647 [3]) of 2500 nM.

B1: 60 bp EMSA template (dsDNA)
DNA 1: CATACTGGTTCCAAAGCATGAAATAGTTCCAAAAGAAGAAGTTGAGGAGTTTTGAAGAGA
DNA 2: TCTCTTCAAAACTCCTCAACTTCTTCTTTTGGAACTATTTCATGCTTTGGAACCAGTATG
B1: binds (MJ1647 [4]); binds (MJ1647ΔTM; 5'-32P for K80E and E95K); binds (A3 [5]). B1: binds (MJ1647 E95K); binds (MJ1647 K80E).

B2: histone variant MJ1647 from Methanocaldococcus jannaschii (natural protein)
chain: T1 sequence
notes: histone paralogue MJ1647 of Methanocaldococcus jannaschii, histone fold followed by a C-terminal extension of 27 amino acids (tetramerisation module, TM); gene cloned into pET-21a(+) via NdeI and XhoI for expression of untagged protein; expected tetramer mass 44.8 kDa; Untagged; Tetramer in solution (SEC-MALS, native MS); crystallised as dimers at pH 4.6; also called wild-type MJ1647; WT MJ1647; …
In the case of B2, the “stoichiometry N” value [6] is reported as 2 and the “stoichiometry N” value [7] is reported as 4.

B3: MJ1647 C28S/C62S/K80C (natural protein, Methanocaldococcus jannaschii)
chain: T1 sequence with C28S, C62S, K80C
notes: MJ1647 of Methanocaldococcus jannaschii with C28S, C62S and K80C; also called single-cysteine substitution K80C; source: E. coli, purified (as the wild type)
B3 was tested, and the “stoichiometry N” value [8] was 4.

B4: MJ1647 C28S/C62S (cysteine-free background) (natural protein, Methanocaldococcus jannaschii)
chain: T1 sequence with C28S, C62S
notes: MJ1647 of Methanocaldococcus jannaschii with its two cysteines replaced by serine (C28S, C62S); also called C28S/C62S variant; source: E. coli, purified (as the wild type)
With B4 the “stoichiometry N” value [8] was 4.

B5: MJ1647 K80E/E95K double charge-reversal mutant (natural protein, Methanocaldococcus jannaschii)
chain: T1 sequence with K80E, E95K
notes: MJ1647 of Methanocaldococcus jannaschii with the substitutions K80E and E95K; source: E. coli, purified (as the wild type; plasmid by site-directed mutagenesis or NEBuilder HiFi DNA assembly)
B5 was tested, and the “stoichiometry N” value [8] was 4.

B6: MJ1647 C28S/C62S/K80C/E95C (double-cysteine variant) (natural protein, Methanocaldococcus jannaschii)
chain: T1 sequence with C28S, C62S, K80C, E95C
modifications: disulfide bond between C80 and C95 of two chains (reduced only at 25 mM TCEP)
notes: MJ1647 of Methanocaldococcus jannaschii with C28S, C62S, K80C and E95C; also called double-cysteine substitution; source: E. coli, purified (as the wild type)
B6 was tested, and the “stoichiometry N” value [8] was 4.

B7: MJ1647 K80E charge-reversal mutant (natural protein, Methanocaldococcus jannaschii)
chain: T1 sequence with K80E
notes: MJ1647 of Methanocaldococcus jannaschii with the substitution K80E; source: E. coli, purified (as the wild type; plasmid by site-directed mutagenesis or NEBuilder HiFi DNA assembly)
B7: binds [8].

B8: MJ1647 C28S/C62S/E95C (natural protein, Methanocaldococcus jannaschii)
chain: T1 sequence with C28S, C62S, E95C
notes: MJ1647 of Methanocaldococcus jannaschii with C28S, C62S and E95C; also called single-cysteine substitution E95C; source: E. coli, purified (as the wild type)
B8 was tested, and the “stoichiometry N” value [8] was 4.

B9: MJ1647 E95K charge-reversal mutant (natural protein, Methanocaldococcus jannaschii)
chain: T1 sequence with E95K
notes: MJ1647 of Methanocaldococcus jannaschii with the substitution E95K; source: E. coli, purified (as the wild type; plasmid by site-directed mutagenesis or NEBuilder HiFi DNA assembly)
B9: binds [8].

B10: 30 bp EMSA template (dsDNA)
DNA 1: CATACTGGTTCCAAAGCATGAAATAGTTCCAA
DNA 2: TTGGAACTATTTCATGCTTTGGAACCAGTATG
B10: binds (A3 [9]); binds (MJ1647ΔTM).

B11: histone A3 (MJ1258) from Methanocaldococcus jannaschii (natural protein, UniProt Q58655 1-67, looked up)
chain: T3 sequence
notes: canonical histone A3 of Methanocaldococcus jannaschii, gene MJ1258, cloned into pET-21a(+) via NdeI and XhoI for expression of untagged protein; expected dimer mass 14.5 kDa; Untagged; also called canonical histone A3; source: E. coli Rosetta 2(DE3), purified (heparin, SP Sepharose, SEC); also co-expressed with MJ1647 from pETDuet-1 in E. coli and purified in the same way
With B11 the binding result [10] was “no binding” and the “stoichiometry N” value [11] was 2.
